± gives the standard error. This sample holds only a part of the variants without activity.
B1: glmS ribozyme (parent)
chain: AUAAAAGCGCCAGAACUACAGAAAUGUAGUUGACGAGGAGGAGGUUUAUCGAAUUUUCGGCGGAUGCCUCCAAA

Legend:
Conditions in all cases: with glucosamine-6-phosphate
[1] = variants of: B1; experiment: self-cleavage kobs at 40 uM GlcN6P; higher = faster cleavage; RNA array
Outline: (§1)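 The measurements used barcoded ribozyme variants on sequenced MiSeq chips, transcribed in situ by E. coli RNA polymerase and tracked at 37 °C with a hybridised Cy3 probe. Glucosamine-6-phosphate, 40 μM to 10 mM in HEPES/KCl/Mg(OAc)2 buffer, was flowed in while tiles were imaged over ~14 h. Baseline-normalised signals, also normalised to non-cleaving reference variants, gave per-tile medians that were fit to one- or two-exponential decays for kobs. kcat and KM resulted from weighted Michaelis–Menten fits across concentrations.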

[2] = variants of: B1; experiment: self-cleavage kobs at 160 uM GlcN6P; higher = faster cleavage; RNA array
Outline: as §1

[3] = variants of: B1; experiment: self-cleavage kobs at 10000 uM GlcN6P; higher = faster cleavage; RNA array
Outline: as §1

[4] = variants of: B1; experiment: self-cleavage kobs at 640 uM GlcN6P; higher = faster cleavage; RNA array
Outline: as §1

[5] = variants of: B1; experiment: self-cleavage kobs at 2500 uM GlcN6P; higher = faster cleavage; RNA array
Outline: as §1

C10U A14G A15G G43A U45G A52G A64G
self-cleavage kobs at 40 uM GlcN6P [1]: < 1e-05 s⁻¹
self-cleavage kobs at 160 uM GlcN6P [2]: < 1e-05 s⁻¹
self-cleavage kobs at 10000 uM GlcN6P [3]: < 1e-05 s⁻¹

C10U G44A
self-cleavage kobs at 40 uM GlcN6P [1]: < 1e-05 s⁻¹
self-cleavage kobs at 160 uM GlcN6P [2]: < 1e-05 s⁻¹
self-cleavage kobs at 640 uM GlcN6P [4]: < 1e-05 s⁻¹
self-cleavage kobs at 10000 uM GlcN6P [3]: < 1e-05 s⁻¹

C10A U31C
self-cleavage kobs at 40 uM GlcN6P [1]: < 1e-05 s⁻¹
self-cleavage kobs at 640 uM GlcN6P [4]: < 1e-05 s⁻¹
self-cleavage kobs at 10000 uM GlcN6P [3]: < 1e-05 s⁻¹

G9U A33G
self-cleavage kobs at 40 uM GlcN6P [1]: < 1e-05 s⁻¹
self-cleavage kobs at 160 uM GlcN6P [2]: < 1e-05 s⁻¹
self-cleavage kobs at 640 uM GlcN6P [4]: < 1e-05 s⁻¹
self-cleavage kobs at 2500 uM GlcN6P [5]: < 1e-05 s⁻¹

C10U A12U A33U A53G C58U U69G
self-cleavage kobs at 40 uM GlcN6P [1]: 9.07e-05 ± 2.5e-05 s⁻¹
self-cleavage kobs at 160 uM GlcN6P [2]: 0.000159 ± 3.3e-05 s⁻¹
self-cleavage kobs at 640 uM GlcN6P [4]: 0.000216 ± 5.1e-05 s⁻¹
self-cleavage kobs at 2500 uM GlcN6P [5]: 0.000132 ± 4.1e-05 s⁻¹
self-cleavage kobs at 10000 uM GlcN6P [3]: 6.22e-05 ± 1.8e-05 s⁻¹

C10U A12G G43U
self-cleavage kobs at 40 uM GlcN6P [1]: < 1e-05 s⁻¹
self-cleavage kobs at 640 uM GlcN6P [4]: < 1e-05 s⁻¹
self-cleavage kobs at 2500 uM GlcN6P [5]: < 1e-05 s⁻¹
self-cleavage kobs at 10000 uM GlcN6P [3]: < 1e-05 s⁻¹

G9C C71U
self-cleavage kobs at 40 uM GlcN6P [1]: < 1e-05 s⁻¹
self-cleavage kobs at 160 uM GlcN6P [2]: < 1e-05 s⁻¹
self-cleavage kobs at 640 uM GlcN6P [4]: < 1e-05 s⁻¹
self-cleavage kobs at 2500 uM GlcN6P [5]: < 1e-05 s⁻¹
self-cleavage kobs at 10000 uM GlcN6P [3]: < 1e-05 s⁻¹

G9U G59U
self-cleavage kobs at 40 uM GlcN6P [1]: < 1e-05 s⁻¹
self-cleavage kobs at 160 uM GlcN6P [2]: < 1e-05 s⁻¹
self-cleavage kobs at 10000 uM GlcN6P [3]: < 1e-05 s⁻¹

C10A A12U
self-cleavage kobs at 40 uM GlcN6P [1]: < 1e-05 s⁻¹

C10G U47G C70U C71G
self-cleavage kobs at 40 uM GlcN6P [1]: < 1e-05 s⁻¹
self-cleavage kobs at 640 uM GlcN6P [4]: 0.00148 ± 0.00064 s⁻¹

C10A A36G G40C U47G
self-cleavage kobs at 40 uM GlcN6P [1]: < 1e-05 s⁻¹

C11A A14C A36G C50U C58U C61G
self-cleavage kobs at 40 uM GlcN6P [1]: 0.000206 ± 8.1e-05 s⁻¹

C10G A14C A36G U55A C71U
self-cleavage kobs at 40 uM GlcN6P [1]: < 1e-05 s⁻¹

G9C C10A U56A
self-cleavage kobs at 40 uM GlcN6P [1]: < 1e-05 s⁻¹
self-cleavage kobs at 640 uM GlcN6P [4]: < 1e-05 s⁻¹
self-cleavage kobs at 2500 uM GlcN6P [5]: < 1e-05 s⁻¹

G9A U55C C71A
self-cleavage kobs at 40 uM GlcN6P [1]: < 1e-05 s⁻¹
self-cleavage kobs at 640 uM GlcN6P [4]: < 1e-05 s⁻¹
self-cleavage kobs at 2500 uM GlcN6P [5]: < 1e-05 s⁻¹

G9U G51A
self-cleavage kobs at 40 uM GlcN6P [1]: < 1e-05 s⁻¹
self-cleavage kobs at 160 uM GlcN6P [2]: < 1e-05 s⁻¹
self-cleavage kobs at 640 uM GlcN6P [4]: < 1e-05 s⁻¹
self-cleavage kobs at 10000 uM GlcN6P [3]: < 1e-05 s⁻¹

G9U A33U A52U U56G
self-cleavage kobs at 40 uM GlcN6P [1]: < 1e-05 s⁻¹

C10A A48U A52C A64G
self-cleavage kobs at 40 uM GlcN6P [1]: < 1e-05 s⁻¹

C11A C34U G63C
self-cleavage kobs at 40 uM GlcN6P [1]: < 1e-05 s⁻¹
self-cleavage kobs at 640 uM GlcN6P [4]: < 1e-05 s⁻¹
self-cleavage kobs at 2500 uM GlcN6P [5]: < 1e-05 s⁻¹

C11G A36G C67U
self-cleavage kobs at 40 uM GlcN6P [1]: < 1e-05 s⁻¹

G9C G29U U69A
self-cleavage kobs at 40 uM GlcN6P [1]: < 1e-05 s⁻¹
self-cleavage kobs at 160 uM GlcN6P [2]: < 1e-05 s⁻¹
self-cleavage kobs at 640 uM GlcN6P [4]: < 1e-05 s⁻¹
self-cleavage kobs at 2500 uM GlcN6P [5]: < 1e-05 s⁻¹
self-cleavage kobs at 10000 uM GlcN6P [3]: < 1e-05 s⁻¹

C10U G40U C58A
self-cleavage kobs at 40 uM GlcN6P [1]: < 1e-05 s⁻¹
self-cleavage kobs at 2500 uM GlcN6P [5]: < 1e-05 s⁻¹
self-cleavage kobs at 10000 uM GlcN6P [3]: < 1e-05 s⁻¹

C10U G62A
self-cleavage kobs at 40 uM GlcN6P [1]: < 1e-05 s⁻¹
self-cleavage kobs at 640 uM GlcN6P [4]: < 1e-05 s⁻¹
self-cleavage kobs at 10000 uM GlcN6P [3]: < 1e-05 s⁻¹

From the supplement of paper PMC7125110
